Results: patent US20200199241A1 (Chugai, published 2020)
Residue numbers refer to the chain shown, from its start. Names and notes keep the numbering of the source. Where two headings read alike, the source gives them in different places. Each block holds one binder with its values, some of them ahead of it.

Legend:
[1] = target: T1, human FcRn (soluble human FcRn complexed with β2-microglobulin) (human, UniProt P61769 21-119, limits assumed); experiment: SPR, antibody captured by Protein L, human FcRn as analyte, pH 7.0, 25 C
T1 construct: also called hFcRn

[2] = target: T2, mouse FcγRIII (mouse, UniProt P08508 31-215); experiment: SPR, antibody captured by Protein L, mouse FcγR as analyte, pH 7.4, 25 C
T2 construct: bought; also called mFcgRIII; mFcgR III
T2 sequence (looked up): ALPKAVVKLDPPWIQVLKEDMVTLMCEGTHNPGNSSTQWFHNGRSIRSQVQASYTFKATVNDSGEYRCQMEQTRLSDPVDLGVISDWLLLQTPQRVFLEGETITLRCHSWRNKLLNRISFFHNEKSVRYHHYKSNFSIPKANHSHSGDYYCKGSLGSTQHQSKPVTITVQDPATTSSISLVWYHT

[3] = target: T3, mouse FcγRIIb (mouse, UniProt P08101 30-207, limits assumed); experiment: as above
T3 construct: bought; also called mFcgRIIb; mFcgR IIb
T3 sequence (looked up): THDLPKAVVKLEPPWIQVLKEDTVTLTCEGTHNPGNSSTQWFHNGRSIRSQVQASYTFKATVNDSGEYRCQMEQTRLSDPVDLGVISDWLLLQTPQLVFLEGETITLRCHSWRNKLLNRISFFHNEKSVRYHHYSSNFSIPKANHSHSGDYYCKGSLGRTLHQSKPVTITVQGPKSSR

[4] = target: T4, mouse FcγRIV (mouse, UniProt A0A0B4J1G0 21-203); experiment: as above
T4 construct: bought; also called mFcgRIV; mFcgR IV; the vendor's purification tag not given
T4 sequence: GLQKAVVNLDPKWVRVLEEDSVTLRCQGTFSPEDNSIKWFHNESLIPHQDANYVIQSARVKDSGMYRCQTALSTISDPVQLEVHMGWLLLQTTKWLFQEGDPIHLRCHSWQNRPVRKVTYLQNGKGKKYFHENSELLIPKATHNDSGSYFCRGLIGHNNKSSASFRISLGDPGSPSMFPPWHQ

[5] = target: T5, human FcγRIa (human, UniProt P12314 16-292, limits assumed); experiment: SPR, antibody captured by Protein L, human FcγR as analyte, pH 7.4, 25 C
T5 construct: also called hFcgRIa; hFcgRI

[6] = target: T1, human FcRn (soluble human FcRn …); experiment: SPR, antibody captured by Protein L, human FcRn as analyte, pH 7.0, 25 C; remark: listed apart in the source
[7] = target: T5, human FcγRIa; experiment: SPR, antibody captured by Protein L, human FcγR as analyte, pH 7.4, 25 C; remark: listed apart in the source
[8] = target: T6, human FcγRIIb (human, UniProt P31994 43-217, limits assumed); experiment: as above
T6 construct: also called hFcgRIIb; FcγIIB
T6 sequence: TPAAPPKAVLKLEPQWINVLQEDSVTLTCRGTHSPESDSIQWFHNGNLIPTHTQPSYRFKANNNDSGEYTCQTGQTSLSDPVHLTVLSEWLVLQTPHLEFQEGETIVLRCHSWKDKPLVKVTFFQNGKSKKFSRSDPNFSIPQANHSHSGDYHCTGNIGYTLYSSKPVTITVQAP

[9] = target: T1, human FcRn (soluble human FcRn …); experiment: SPR, antibody captured by Protein L, human FcRn as analyte, pH 7.0, 25 C; remark: listed apart in the source
[10] = target: T7, mouse FcγRI (mouse, UniProt P26151 25-297); experiment: SPR, antibody captured by Protein L, mouse FcγR as analyte, pH 7.4, 25 C
T7 construct: bought; also called mFcgRI; mFcgR 1
T7 sequence (looked up): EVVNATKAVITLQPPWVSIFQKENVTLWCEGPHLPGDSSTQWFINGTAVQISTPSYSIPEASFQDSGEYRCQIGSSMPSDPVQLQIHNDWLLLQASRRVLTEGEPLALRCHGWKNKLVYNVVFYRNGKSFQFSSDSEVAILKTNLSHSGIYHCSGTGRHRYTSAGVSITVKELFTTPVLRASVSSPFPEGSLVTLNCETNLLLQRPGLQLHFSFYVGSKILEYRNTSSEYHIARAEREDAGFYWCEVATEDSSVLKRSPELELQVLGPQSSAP

[11] = target: T8, human FcγRIIa(H) (human, UniProt P12318 36-217); experiment: SPR, antibody captured by Protein L, human FcγR as analyte, pH 7.4, 25 C
T8 construct: also called hFcgRIIa(H); FcγRIIa type H
T8 sequence: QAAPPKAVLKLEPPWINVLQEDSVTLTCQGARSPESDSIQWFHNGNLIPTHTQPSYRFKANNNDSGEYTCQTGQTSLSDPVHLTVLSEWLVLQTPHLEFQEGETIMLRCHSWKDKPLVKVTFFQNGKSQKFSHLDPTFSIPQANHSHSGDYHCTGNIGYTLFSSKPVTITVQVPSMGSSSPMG

[12] = target: T5, human FcγRIa; experiment: as above; remark: listed apart in the source
[13] = target: T6, human FcγRIIb; experiment: as above; remark: listed apart in the source
[14] = target: T9, human FcγRIIa(R) (human, UniProt P12318 36-217); experiment: as above
T9 construct: also called hFcgRIIa(R); FcγRIIa type R
T9 chain: T8 sequence with H133R

[15] = target: T1, human FcRn (soluble human FcRn …); experiment: SPR, antibody captured by Protein L, human FcRn as analyte, pH 7.0, 25 C; remark: listed apart in the source
[16] = target: T10, human FcγRIIa(R) (human, UniProt P12318 36-217); experiment: SPR, antibody captured by Protein A, FcγR analyte, 1:1 Langmuir fit
T10 construct: also called FcgRIIaR; hFcgRIIa(R)
T10 chain: T8 sequence with H133R

[17] = target: T11, human FcγRIIb (human, UniProt P31994 43-217, limits assumed); experiment: as above
T11 construct: also called FcgRIIb; hFcgRIIb
T11 sequence: T6 sequence

[18] = target: T12, human FcγRIIa(H) (human, UniProt P12318 36-217); experiment: as above
T12 construct: also called FcgRIIaH; hFcgRIIa(H)
T12 sequence: T8 sequence

[19] = target: T13, human FcγRIa (human, UniProt P12314 16-292, limits assumed); experiment: as above
T13 construct: also called FcgRIa; hFcgRIa

[20] = target: T10, human FcγRIIa(R); experiment: SPR
[21] = target: T11, human FcγRIIb; experiment: SPR
[22] = target: T12, human FcγRIIa(H); experiment: SPR
[23] = target: T13, human FcγRIa; experiment: SPR
[24] = target: T12, human FcγRIIa(H); experiment: SPR, antibody captured by Protein A, FcγR analyte; * calculated with Equation 5

B1: VH3/L(WT)-IgG1-F140 (VH3-IgG1-F140 heavy chain, L(WT)-CK light chain) (antibody)
heavy: QVQLQESGPGLVKPSETLSLTCAVSGHSISHDHAWSWVRQPPGEGLEWIGFISYSGITNYNPSLQGRVTISRDNSKNTLYLQMNSLRAEDTAVYYCARSLARTTAMDYWGEGTLVTVSSASTKGPSVFPLAPSSKSTSGGTAALGCLVKDYFPEPVTVSWNSGALTSGVHTFPAVLQSSGLYSLSSVVTVPSSSLGTQTYICNVNHKPSNTKVDKKVEPKSCDKTHTCPPCPAPELLGGPKVFLFPPKPKDTLYISRTPEVTCVVVDVSHEDPEVKFNWYVDGVEVHNAKTKPREEQYNSTYRVVSVLTPLHQDWLNGKEYKCKVSNKALPAPIEKTISKAKGQPREPQVYTLPPSRDELTKNQVSLTCLVKGFYPSDIAVEWESNGQPENNYKTTPPVLDSDGSFFLYSKLTVDKSRWQQGNVFSCSVMHEALHYHYTQKSLSLSP
light: not shown
notes: S239K/M252Y/V308P/N434Y; copies: 2 + 2
Kd [1]: 36 nM
BINDING AMOUNT (RU) [2]: 46.6 RU
BINDING AMOUNT (RU) [3]: -1.8 RU
BINDING AMOUNT (RU) [4]: 108 RU
BINDING AMOUNT (RU) [5]: 335 RU
Kd [6]: 36 nM

B2: VH3/L(WT)-IgG1-F699 (antibody, name in EU numbering)
heavy: B1 heavy with N288E, T309Q, P310V, Q313A
light: not shown
notes: copies: 2 + 2
BINDING AMOUNT (RU) [7]: 164 RU
BINDING AMOUNT (RU) [8]: -0.3 RU
Kd [9]: 23 nM

B5: IL6R-G1d/IL6R-L (antibody, human IgG1)
heavy: not shown
light: DIQMTQSPSSLSASVGDRVTITCRASQDISSYLNWYQQKPGKAPKLLIYYTSRLHSGVPSRFSGSGSGTDFTFTISSLQPEDIATYYCQQGNTLPYTFGQGTKVEIK
notes: anti-human IL-6 receptor, G1d constant region; copies: 2 + 2
Kd [16]: 1200 nM
Kd [17]: 5300 nM
Kd [18]: 770 nM
Kd [19]: 0.34 nM

B7: IL6R-G1d_v2/IL6R-L (antibody, human IgG1)
heavy: not shown
light: B5 light
notes: L328E (EU numbering) in IL6R-G1d; also called IgG1-v2; copies: 2 + 2
Kd [16]: 2900 nM
Kd [17]: 2300 nM
Kd [19]: 0.46 nM
relative KD (KD of IgG1/KD of variant) [20]: 0.41 fold
relative KD (KD of IgG1/KD of variant) [21]: 2.3 fold
relative KD (KD of IgG1/KD of variant) [22]: 0.064 fold
relative KD (KD of IgG1/KD of variant) [23]: 0.74 fold
Kd [24]: 12000 nM

B8: IL6R-G1d_v3/IL6R-L (antibody, human IgG1)
heavy: not shown
light: B5 light
notes: S267E/L328F (EU numbering) in IL6R-G1d; also called IgG1-v3; copies: 2 + 2
Kd [16]: 2.3 nM
Kd [17]: 13 nM
Kd [18]: 1500 nM
Kd [19]: 0.19 nM
relative KD (KD of IgG1/KD of variant) [20]: 522 fold
relative KD (KD of IgG1/KD of variant) [21]: 408 fold
relative KD (KD of IgG1/KD of variant) [22]: 0.51 fold
relative KD (KD of IgG1/KD of variant) [23]: 1.8 fold

Now from value to binder:

BINDING AMOUNT (RU) [2]: 276 RU
BINDING AMOUNT (RU) [3]: 129 RU
BINDING AMOUNT (RU) [4]: 243 RU
BINDING AMOUNT (RU) [10]: 315 RU
Kd [6]: 150 nM
B3: antibody with VH3-IgG1-F157 heavy chain and L(WT)-CK light chain (antibody)
heavy: B1 heavy with K241S, Y254M, P259A, M430L
light: not shown
notes: P257A/V308P/M428L/N434Y; also called 1gG1-F157; copies: 2 + 2

BINDING AMOUNT (RU) [11]: -0.8 RU
BINDING AMOUNT (RU) [12]: -0.4 RU
BINDING AMOUNT (RU) [13]: -1 RU
BINDING AMOUNT (RU) [14]: -1 RU
Kd [15]: 35 nM
B4: VH3/L(WT)-IgG1-F763 (antibody, name in EU numbering)
heavy: B1 heavy with L237R, N288E, T309Q, P310V, Q313A
light: not shown
notes: copies: 2 + 2

Kd [16]: 12000 nM
Kd [17]: 1100 nM
Kd [19]: 7.3 nM
relative KD (KD of IgG1/KD of variant) [20]: 0.1 fold
relative KD (KD of IgG1/KD of variant) [21]: 4.8 fold
relative KD (KD of IgG1/KD of variant) [22]: 0.014 fold
relative KD (KD of IgG1/KD of variant) [23]: 0.047 fold
Kd [24]: 56000 nM
B6: IL6R-G1d_v1/IL6R-L (antibody, human IgG1)
heavy: not shown
light: B5 light
notes: P238D (EU numbering) in IL6R-G1d; also called IgG1-v1; copies: 2 + 2
